Drawing on publication PMC8208096, this text covers normalized fold of enrichment (against HA-tagged WT) for two substances.

The assay deals with wildtype human transient receptor potential ankyrin 1 channel subunit (hTRPA1_WT) (human) (UniProt O75762). The assay is described as follows: co-IP.

With “hTRPA1_27A splice variant, HA-tagged (natural protein)”, the normalized fold of enrichment (against HA-tagged WT) was found to be 0.71 fold.
Under “hTRPA1_27B splice variant, HA-tagged (natural protein)” stands 0.62 fold.
